One block for each binder: values may come before it.
Experiments:
[1] = target: T1, huROR1-His (human ROR1 ECD AA30-406 with C-terminal His tag, made in house) (human, UniProt Q01973 30-406); experiment: Gator (BLI) Advanced Kinetics; antibody 30 nM, huROR1-His 480-7.5 nM
T1 construct: range 30-406; Expressed in HEK293; also called antigen protein huROR1-His; not shown: C-terminal His tag
Procedure: First, Q buffer was prepared with PBS (10 mM pH7.4) (IgG-free, purchased from Jackson ImmunoResearch Lab)+0.02% Tween 20 (purchased from thermo)+0.2% BSA (purchased from source culture), and the stock solution of the test antibody was diluted with the prepared Q buffer to a working solution with a final concentration of 30 nM, the stock solution of the antigen protein huROR1-His was prepared with Q buffer into a working solution with multiple dilutions (480, 240, 120, 60, 30, 15, 7.5 nM), and detection and analysis was then performed with Gator instrument and its accompanying software, selecting the Advanced Kinetics experimental mode is used.

[2] = target: T1, huROR1-His (human ROR1 ECD AA30-406 …); experiment: ELISA, huROR1-His coated plate, goat anti-human Fc-HRP, OD450
[3] = target: T1, huROR1-His (human ROR1 ECD AA30-406 …); experiment: as above; remark: listed apart in the source
[4] = target: T1, huROR1-His (human ROR1 ECD AA30-406 …); experiment: ELISA, huROR1-His coated at 2 µg/mL, goat anti-human Fc-HRP, OD450
Procedure: (§1) 96-well ELISA plate was coated with 2 μg/mL huROR1-His (30 μL/well) at 4° C. overnight. The next day, the plate was washed three times with PBST and then blocked with 5% skim milk for 2 h. […] After washing with PBST for three times, the secondary antibody Goat-anti-human Fc-HRP (abcam, ab97225) was added and incubated for 1 h. After incubation, the plate was washed with PBST for 6 times and TMB (SurModics, TMBS-1000-01) was added for color development. According to the color development results, 2 M HCl was added to terminate the reaction, and the data were read at OD450 using a microplate reader (Molecular Devices, SpecterMax 190).

[5] = target: T2, huROR2-His (human ROR2 ECD AA34-403 with C-terminal His tag) (human, UniProt Q01974 34-403); experiment: ELISA, huROR2-His coated at 2 µg/mL, goat anti-human Fc-HRP, OD450
T2 construct: range 34-403; Expressed in HEK293; also called human ROR2 antigen protein; not shown: C-terminal His tag
Procedure: as §1, with “huROR2-His” for “huROR1-His”, “TMBS-1000-0)” for “TMBS-1000-01)”

[6] = target: T3, MusROR1-His (mouse ROR1 ECD AA30-406 with C-terminal His tag) (mouse, UniProt Q9Z139 30-406); experiment: ELISA, MusROR1-His coated at 2 µg/mL, goat anti-human Fc-HRP, OD450
T3 construct: range 30-406; Expressed in HEK293; also called mouse ROR1 antigen protein; not shown: C-terminal His tag
Procedure: as §1, with “MusROR1-His” for “huROR1-His”

[7] = target: T4, human ROR1 on cells (full-length human ROR1 on huROR1-HEK293 cells; human ROR1 on A549 and HT-29 tumor cells) (human, UniProt Q01973 30-937); experiment: flow cytometry (FACS) on A549 tumor cells, anti-human IgG-Fc secondary antibody, MFI
T4 construct: whole, on cells; also called hROR1-HEK293T; A549 tumor cells
Procedure: (§2) In this example, the binding activity of the antibody was evaluated using two types of cells, huROR1-HEK293 cells over-expressing human ROR1 and A549 tumor cells.
(§3) The specific method was as follows: huROR1-HEK293 cells or A549 cells in the logarithmic growth phase were prepared to a single-cell suspension, the density was adjusted to 1×10⁶ cells/mL, then 100 μL/well cells were added to a 96-well round-bottom plate, centrifuged at 4° C., 300 g, and the supernatant was removed. […] After the incubation, the cell mixture was washed three times and then 100 μL of 1:300 diluted secondary antibody Goat F(ab′)₂ Anti-Human IgG-Fc (abcam, ab98596) was added. The mixture was incubated at 4° C. in the dark for 30 min. After washing three times, the cells were detected by flow cytometry (Beckman, CytoFLEX AOO-1-1102).

[8] = target: T4, human ROR1 on cells (full-length human …); experiment: flow cytometry (FACS) on huROR1-HEK293 cells, anti-human IgG-Fc secondary antibody, MFI
Procedure: as §2, §3

[9] = target: T1, huROR1-His (human ROR1 ECD AA30-406 …); experiment: Biacore T200 SPR; huROR1-His amine-coupled (~75 RU), antibody 4 and 20 nM as analyte, 1:1 Langmuir fit
Procedure: Protein coupling: The huROR1-His protein produced in Example 1.2 was diluted to 5.6 μg/mL with NaAc buffer, pH 5.0, the flow rate was set to 10 μL/min, the chip activation time was set to the default value of 420 s with a mixture of 1-ethyl-(3-dimethylaminopropyl)carbodiimide (EDC) and N-hydroxysuccinimide (NHS), and the antigen protein huROR1-His was fixed to a level of about 75 RU using a coupling mode with a preset coupling amount, and the activated groups that were not bound to the test sample were blocked with ethanolamine.
Sample test conditions: PBS buffer (pH 7.4) containing 0.05% Tween-20 was used as the running buffer, and the running buffer was used as the control test sample. A series of antibody concentrations (4 nM, 20 nM) were set. During sample analysis, the flow rate was set to 30 μL/min, the binding time was 120 s, and the dissociation time was 360 s. After the dissociation was completed, 10 mM Gly-HCl (pH 2.0) was used for regeneration for 20 s to completely remove the antibody bound to the ligand.
Parameter fitting: The experiment was run in multiple cycles, with the response signal taking the analysis time as the horizontal axis and the response value as the vertical axis. After double reference subtraction, the obtained data were fitted by BiAcore T200 analysis software. The fitting model adopted was 1:1 Langmuir binding model, and Affinity metrics such as the binding dissociation constant were determined.

T1 sequence (Q01973 30-406 limits assumed): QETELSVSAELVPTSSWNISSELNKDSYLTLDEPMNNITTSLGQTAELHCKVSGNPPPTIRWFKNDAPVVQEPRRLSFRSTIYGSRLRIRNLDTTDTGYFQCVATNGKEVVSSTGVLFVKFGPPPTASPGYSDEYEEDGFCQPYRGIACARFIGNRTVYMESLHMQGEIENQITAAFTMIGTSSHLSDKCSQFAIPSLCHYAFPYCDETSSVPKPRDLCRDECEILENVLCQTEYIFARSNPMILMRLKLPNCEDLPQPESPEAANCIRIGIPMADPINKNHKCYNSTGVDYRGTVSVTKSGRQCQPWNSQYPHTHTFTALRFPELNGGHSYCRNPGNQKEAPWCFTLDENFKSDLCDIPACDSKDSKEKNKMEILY
T4 sequence (Q01973 30-937): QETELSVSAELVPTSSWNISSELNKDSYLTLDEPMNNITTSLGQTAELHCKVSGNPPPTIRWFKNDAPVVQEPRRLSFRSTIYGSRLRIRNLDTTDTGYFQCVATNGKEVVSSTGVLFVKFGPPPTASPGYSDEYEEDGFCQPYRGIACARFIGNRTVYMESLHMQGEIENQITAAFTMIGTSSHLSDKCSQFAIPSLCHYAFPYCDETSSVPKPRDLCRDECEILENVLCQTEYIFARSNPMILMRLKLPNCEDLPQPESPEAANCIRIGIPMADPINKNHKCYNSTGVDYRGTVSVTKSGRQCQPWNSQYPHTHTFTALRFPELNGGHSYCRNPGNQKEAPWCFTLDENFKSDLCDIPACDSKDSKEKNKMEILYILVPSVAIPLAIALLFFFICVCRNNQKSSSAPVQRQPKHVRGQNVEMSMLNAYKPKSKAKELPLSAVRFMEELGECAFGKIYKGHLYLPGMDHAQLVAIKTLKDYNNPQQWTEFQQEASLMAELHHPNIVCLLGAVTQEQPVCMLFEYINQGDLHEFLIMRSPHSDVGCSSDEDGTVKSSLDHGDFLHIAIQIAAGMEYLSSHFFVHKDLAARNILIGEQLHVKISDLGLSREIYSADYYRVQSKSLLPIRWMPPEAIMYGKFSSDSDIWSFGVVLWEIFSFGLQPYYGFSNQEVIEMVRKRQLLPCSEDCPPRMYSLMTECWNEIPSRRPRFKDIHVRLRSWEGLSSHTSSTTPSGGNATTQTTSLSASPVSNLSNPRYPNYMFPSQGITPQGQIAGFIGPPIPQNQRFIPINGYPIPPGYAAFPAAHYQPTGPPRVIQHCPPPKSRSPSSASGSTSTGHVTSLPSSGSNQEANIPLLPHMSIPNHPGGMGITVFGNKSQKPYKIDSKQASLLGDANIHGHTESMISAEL
T2 sequence (Q01974 34-403 limits assumed): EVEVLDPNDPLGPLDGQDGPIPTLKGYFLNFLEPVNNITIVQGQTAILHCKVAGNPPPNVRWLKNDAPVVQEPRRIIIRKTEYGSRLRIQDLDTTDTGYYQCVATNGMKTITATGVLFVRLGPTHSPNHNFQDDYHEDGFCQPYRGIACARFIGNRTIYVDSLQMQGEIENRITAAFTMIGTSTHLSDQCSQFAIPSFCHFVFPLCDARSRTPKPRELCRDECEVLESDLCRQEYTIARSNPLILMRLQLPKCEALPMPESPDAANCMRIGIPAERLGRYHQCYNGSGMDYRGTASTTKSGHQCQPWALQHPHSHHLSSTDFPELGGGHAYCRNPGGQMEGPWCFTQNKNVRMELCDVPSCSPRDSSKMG
T3 sequence (Q9Z139 30-406 limits assumed): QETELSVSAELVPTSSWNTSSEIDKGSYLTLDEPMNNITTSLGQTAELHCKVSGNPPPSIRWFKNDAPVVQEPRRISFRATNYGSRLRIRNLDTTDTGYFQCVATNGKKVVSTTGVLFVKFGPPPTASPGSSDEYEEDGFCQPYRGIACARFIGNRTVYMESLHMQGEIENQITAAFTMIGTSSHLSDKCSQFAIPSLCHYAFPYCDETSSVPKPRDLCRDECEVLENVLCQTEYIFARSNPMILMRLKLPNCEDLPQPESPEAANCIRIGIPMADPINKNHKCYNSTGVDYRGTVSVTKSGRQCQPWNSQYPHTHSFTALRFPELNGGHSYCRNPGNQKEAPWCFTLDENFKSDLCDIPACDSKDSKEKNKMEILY

- Kd [1]: 0.984 nM
- koff [1]: 0.000373 s⁻¹
- kon [1]: 379000 M⁻¹ s⁻¹
- EC50 [2]: 5.58 ng/mL
- EC50 [3]: 5.46 ng/mL
- EC50 [4]: 8.03 ng/mL
- binding result [5]: no binding (tested: 1 µg/mL)
- EC50 (read off the curve) [6]: ~4 ng/mL
- EC50 (read off the curve) [7]: ~6 ng/mL
- EC50 (read off the curve) [8]: ~70 ng/mL
- Kd [9]: 0.0639 nM
- koff [9]: 7.74e-05 s⁻¹
- kon [9]: 1.21e+06 M⁻¹ s⁻¹
- t 1/2 [9]: 2.49 h
B1: B62 (chimeric antibody) (antibody, human IgG1, kappa, V domains shown)
VH: DVKLVESGGGLVQPGGSLKLSCAASGFTFSSYVMSWVRQTPDKRLELVATINSNGGNTYYPDSVKGRFTISRDNAKNTLYLQMSSLKSEDTAMYYCARDSLGLRRRDYAMDYWGQGTSVTVSS
VL: DIVLTQSPASLSMAIGEKVTIRCVTSIDIDDDVNWYQQKPGKPPKLLISAGNTLRPGVPSRFSSSGYGTDFVFTIENMLSEDVADYYCLQSDNLPYTFGGGTKLEIKR
notes: ExpiCHO expression

- EC50 [2]: 6.3 ng/mL
B2: B62-H2L3 (antibody, human IgG1, kappa)
heavy: not shown
light: DIQMTQSPSSLSASVGDRVTITCVTSIDIDDDVNWYQQKPGKAPKLLISAGNTLRPGVPSRFSGSGSGTDFTFTISSLQPEDIATYYCLQSDNLPYTFGGGTKLEIKRTVAAPSVFIFPPSDEQLKSGTASVVCLLNNFYPREAKVQWKVDNALQSGNSQESVTEQDSKDSTYSLSSTLTLSKADYEKHKVYACEVTHQGLSSPVTKSFNRGEC

- EC50 [2]: 6.27 ng/mL
B3: B62-H2L2 (antibody, human IgG1, kappa)
heavy: not shown
light: DIQLTQSPSSLSASVGDRVTIRCVTSIDIDDDVNWYQQKPGKAPKLLISAGNTLRPGVPSRFSGSGSGTDFTFTISSLQPEDIATYYCLQSDNLPYTFGGGTKLEIKRTVAAPSVFIFPPSDEQLKSGTASVVCLLNNFYPREAKVQWKVDNALQSGNSQESVTEQDSKDSTYSLSSTLTLSKADYEKHKVYACEVTHQGLSSPVTKSFNRGEC

- EC50 [2]: 7.88 ng/mL
B4: B62-H1L2 (antibody, human IgG1, kappa, V domains shown)
VH: EVQLVESGGGLVQPGGSLRLSCAASGFTFSSYVMSWVRQTPGKRLELVATINSNGGNTYYPDSVKGRFTISRDNAKNTLYLQMSSLRAEDTAMYYCARDSLGLRRRDYAMDYWGQGTTVTVSS
VL: DIQLTQSPSSLSASVGDRVTIRCVTSIDIDDDVNWYQQKPGKAPKLLISAGNTLRPGVPSRFSGSGSGTDFTFTISSLQPEDIATYYCLQSDNLPYTFGGGTKLEIKR

- EC50 [3]: 8.48 ng/mL
B5: B62-H2L4 (antibody, human IgG1, kappa, V domains shown)
VH: EVQLVESGGGLVQPGGSLRLSCAASGFTFSSYVMSWVRQAPGKGLELVATINSNGGNTYYPDSVKGRFTISRDNAKNTLYLQMGSLRAEDTAMYYCARDSLGLRRRDYAMDYWGQGTTVTVSS
VL: DIQMTQSPSSLSASVGDRVTITCQTSIDIDDDVNWYQQKPGKAPKLLISAGNTLETGVPSRFSGSGSGTDFTFTISSLQPEDIATYYCLQSDNLPYTFGGGTKLEIKR

- EC50 [3]: 6.24 ng/mL
B6: B62-H3L4 (antibody, human IgG1, kappa, V domains shown)
VH: EVQLVESGGGLVQPGGSLRLSCAASGFTFSSYVMSWVRQAPGKGLEYVATINSNGGNTYYADSVKGRFTISRDNSKNTLYLQMGSLRAEDTAMYYCARDSLGLRRRDYAMDYWGQGTTVTVSS
VL: DIQMTQSPSSLSASVGDRVTITCQTSIDIDDDVNWYQQKPGKAPKLLISAGNTLETGVPSRFSGSGSGTDFTFTISSLQPEDIATYYCLQSDNLPYTFGGGTKLEIKR

- EC50 [2]: 7.1 ng/mL
B7: B62-H1L1 (antibody, human IgG1, kappa, V domains shown)
VH: EVQLVESGGGLVQPGGSLRLSCAASGFTFSSYVMSWVRQTPGKRLELVATINSNGGNTYYPDSVKGRFTISRDNAKNTLYLQMSSLRAEDTAMYYCARDSLGLRRRDYAMDYWGQGTTVTVSS
VL: DIQLTQSPSSLSASVGDRVTIRCVTSIDIDDDVNWYQQKPGKAPKLLISAGNTLRPGVPSRFSSSGYGTDFTFTISSMQPEDIATYYCLQSDNLPYTFGGGTKLEIKR

- EC50 [3]: 6.59 ng/mL
B8: B62-H3L2 (antibody, human IgG1, kappa)
heavy: not shown
light: DIQLTQSPSSLSASVGDRVTIRCVTSIDIDDDVNWYQQKPGKAPKLLISAGNTLRPGVPSRFSGSGSGTDFTFTISSLQPEDIATYYCLQSDNLPYTFGGGTKLEIKRTVAAPSVFIFPPSDEQLKSGTASVVCLLNNFYPREAKVQWKVDNALQSGNSQESVTEQDSKDSTYSLSSTLTLSKADYEKHKVYACEVTHQGLSSPVTKSFNRGEC
